From patent US20240101708A1 (Genentech, published 2024)

T1: recombinant human ZNRF3 extracellular domain (human, UniProt Q9ULT6 56-219)
T1 construct: extracellular domain; also called huZNRF3; human ZNRF3 ECD
T1 sequence (looked up): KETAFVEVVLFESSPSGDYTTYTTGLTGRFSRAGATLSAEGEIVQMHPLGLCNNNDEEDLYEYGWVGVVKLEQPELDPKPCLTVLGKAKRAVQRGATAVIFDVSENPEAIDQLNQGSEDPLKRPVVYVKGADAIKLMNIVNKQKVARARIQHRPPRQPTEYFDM

T2: recombinant human RNF43 extracellular domain (human) (UniProt Q68DV7)
T2 sequence (looked up): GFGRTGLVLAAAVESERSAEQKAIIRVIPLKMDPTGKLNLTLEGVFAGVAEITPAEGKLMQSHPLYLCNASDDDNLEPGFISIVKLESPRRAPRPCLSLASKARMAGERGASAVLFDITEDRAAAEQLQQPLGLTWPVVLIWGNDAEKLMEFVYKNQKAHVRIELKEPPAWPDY

B1: ZNRF3-332 (antibody, V domains shown)
VH: QSLEESGGGLVQPEGSLTLTCTASGIDFSTRNYMCWVRQAPGKGLEWVGCIYTSSGGTYYASWVNGRFTISKTSSTTVTLRMTSLTAADTATYFCARGGYVGYGYATYFNLWGPGTLVAVSS
VL: DVVMTQTPASVSEPVGGTVTIKCQASQSISSYLSWYQQKPGQPPKLLIYYVSNLESGVPSRFKGSGSGTEFTLTISDLECADAATYYCQNYYSSSSGWAFGGGTEVVVK
notes: Rabbit clone; VH/VL only
B2: ZNRF3-222 (antibody, V domains shown)
VH: EVQLVESGGGLVQPGRSLKLSCAVSGFTFSNYGMAWVRQTPTKGLEWVATITYDGSTTYYRDSVKGRFTISRDNAKSALSLQMDSLRSEDTATYHCARQGLGYPFVYWGQGTLVTVSS
VL: DVVMTQTPVSLPVSLGGQASISCRTSQSLVHSNGNTYLHWYLQKPGQSPQLLIYRVSNRFSGVPDRFSGSGSGTDFTLKISRIEPEDLGDYYCLQSTHFPYTFGAGTKLELK
notes: Rat clone; VH/VL only
B3: RNF43-19 (antibody, V domains shown)
VH: QQQLEESGGGLVKPGGTLTLTCKASGIDFSTYYYMCWVRQAPGKGLEWIACIYTGDGNTYYASWAKGRFTISKTSSTTVTLQMTSLTAADTATYFCARDLAGSSYYSGYYFKLWGPGTLVTVSS
VL: DVVMTQTPASVSEPVGGTVTIKCQASQSIGSNLAWYQQKPGQPPKLLIYSVSNLASGVSSRFKGSRSGTEYTLTISDLECADAATYYSQSGYYGSTYAFGGGTEVVVK
B4: ZNRF3-322 (antibody, V domains shown)
VH: EVHLVESGGGLVQPGRSLTLSCVASGFTFNNWWMTWIRQAPGKGLEWVASISHTGGSTSYPDSVKGRFTISRDNAKSTLYLQMTSLRSDDTATYYCTRWGPILRGFDYWGQGVMVTVSS
VL: DVVLTQTPPTLSATIGQSVSISCRSSQSLLHINGNTYVNWLVQRPGQPPQLLFYLVSRLESGVPNRFSGSGSGTDFTLKISGVEAEDLGVYYCVQSTHAPPTFGGGTKLELK
notes: Rat clone; VH/VL only
B5: ZNRF3-331 (antibody, V domains shown)
VH: QSVEESGGRLVTPGTPLTLTCTVSGFSLSSYAMGWVRQAPGKGLEWIGIIYAGDTTYYASWAKGRFTISETSTTVDLKITSPTTEDTATYFCARKSDDDSDSYLLWGPGTLVTVSS
VL: AYDMTQTPASVEVAVGGTVTIKCQASQSISSYLNWYQQKRGQPPKLLIYDASTLASGVPSRFSGSGSGTEFTLTISGVQCDDAATYYCQQGWSSTNIDNIFGGGTEVVVK
notes: Rabbit clone; VH/VL only

Experiments:
[1] = target: RNF43; experiment: flow cytometry of live HT29 cells with stably integrated, doxycycline-induced gD-tagged ligase, stained with anti-gD antibody and APC; Parental HT29 APC-A+ 0.27
RNF43, sequence (transmembrane E3 ubiquitin ligase with N-terminal gD tag, as listed by the source limits assumed): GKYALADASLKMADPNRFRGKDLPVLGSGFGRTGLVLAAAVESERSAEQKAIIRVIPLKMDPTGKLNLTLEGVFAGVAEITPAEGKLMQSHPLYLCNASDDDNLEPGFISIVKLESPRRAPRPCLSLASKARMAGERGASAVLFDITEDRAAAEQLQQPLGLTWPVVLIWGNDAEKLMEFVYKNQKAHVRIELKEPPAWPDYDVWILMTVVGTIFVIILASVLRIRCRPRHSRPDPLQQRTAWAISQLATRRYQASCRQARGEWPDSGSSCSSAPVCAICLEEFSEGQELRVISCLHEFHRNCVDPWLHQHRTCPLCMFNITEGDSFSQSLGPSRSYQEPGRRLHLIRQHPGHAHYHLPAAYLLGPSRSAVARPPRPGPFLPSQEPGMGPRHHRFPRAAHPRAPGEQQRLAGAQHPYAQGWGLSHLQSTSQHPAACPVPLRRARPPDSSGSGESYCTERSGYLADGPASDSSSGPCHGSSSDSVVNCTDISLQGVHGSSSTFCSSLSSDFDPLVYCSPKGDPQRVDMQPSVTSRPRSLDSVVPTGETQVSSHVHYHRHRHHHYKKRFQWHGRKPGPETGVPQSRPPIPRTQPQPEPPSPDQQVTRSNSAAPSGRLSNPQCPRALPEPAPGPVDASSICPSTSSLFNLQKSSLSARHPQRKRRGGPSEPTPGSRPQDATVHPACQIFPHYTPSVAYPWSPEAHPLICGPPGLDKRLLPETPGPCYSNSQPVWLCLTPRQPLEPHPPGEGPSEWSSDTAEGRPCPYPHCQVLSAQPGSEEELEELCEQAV

[2] = target: RNF128 (GRAIL); experiment: as above
RNF128 (GRAIL), sequence (transmembrane E3 ubiquitin ligase with N-terminal gD tag, as listed by the source limits assumed): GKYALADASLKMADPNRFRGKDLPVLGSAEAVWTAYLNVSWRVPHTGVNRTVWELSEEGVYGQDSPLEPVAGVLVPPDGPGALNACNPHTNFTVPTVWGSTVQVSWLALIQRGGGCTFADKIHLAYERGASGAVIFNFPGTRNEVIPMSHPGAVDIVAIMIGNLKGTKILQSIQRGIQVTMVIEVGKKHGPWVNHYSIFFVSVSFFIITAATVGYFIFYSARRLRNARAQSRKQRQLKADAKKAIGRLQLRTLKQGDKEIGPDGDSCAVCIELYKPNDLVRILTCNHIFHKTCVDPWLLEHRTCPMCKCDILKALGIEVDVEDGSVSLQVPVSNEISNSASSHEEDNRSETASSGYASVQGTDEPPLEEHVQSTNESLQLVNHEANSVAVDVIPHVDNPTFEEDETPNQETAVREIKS

[3] = target: RNF13; experiment: as above
RNF13, sequence (transmembrane E3 ubiquitin ligase with N-terminal gD tag, as listed by the source limits assumed): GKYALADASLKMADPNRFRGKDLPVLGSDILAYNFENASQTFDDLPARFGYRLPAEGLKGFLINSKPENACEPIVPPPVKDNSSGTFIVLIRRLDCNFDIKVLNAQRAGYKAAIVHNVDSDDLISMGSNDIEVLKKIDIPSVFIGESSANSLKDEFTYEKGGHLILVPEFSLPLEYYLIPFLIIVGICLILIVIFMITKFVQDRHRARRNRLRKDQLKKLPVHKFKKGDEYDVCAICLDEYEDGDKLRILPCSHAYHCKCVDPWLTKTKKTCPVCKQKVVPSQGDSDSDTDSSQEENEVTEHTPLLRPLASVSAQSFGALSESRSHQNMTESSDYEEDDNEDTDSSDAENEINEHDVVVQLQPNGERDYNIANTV

[4] = target: T1, recombinant human ZNRF3 extracellular …; experiment: SPR Biacore 8K; antibody captured on Protein A; ZNRF3 ECD analyte; 25 C
Protocol: Antibodies were screened for binding to recombinant human RNF43 and ZNRF3 ECDs using a Biacore® 8 k instrument (GE Life Sciences). Briefly, antibodies diluted to 1 μg/ml in 1×HBSP buffer (Cytiva, BR100368) were captured on a Sensor Chip Protein A (GE Life Sciences) using a flow rate of 10 μl/minute and a contact time of 60 seconds. Binding of recombinant human RNF43 and ZNRF3 extracellular domain to the captured antibodies was analyzed at 25° C. using a single cycle kinetics method with a flow rate of 30 μl/minute, a contact time of 180 seconds and a dissociation time of 600 seconds. The concentration of recombinant human RNF43 and ZNRF3 extracellular domain in the single cycle kinetics were 0, 0.8, 4, 20, and 100 nM. Between cycles, the chip was regenerated using 10 mM Glycine HCl pH 1.5 injected for 30 seconds at 30 μl/minute. Data were evaluated using Biacore 8K Evaluation software (GE Life Sciences). Kinetic constants were obtained using a 1:1 binding model with the parameter RI set to zero. Cell surface ligase antibodies with sub-nanomolar affinities may provide advantages in certain instances, for example, in the degradation efficiency which is correlated with the durability of the ternary complex as shown in FIG. 5D.

[5] = target: T2, recombinant human RNF43 extracellular domain (human); experiment: SPR Biacore 8K; antibody captured on Protein A; RNF43 ECD analyte; 25 C

Row | Molecule | Kd [4] | binding result [4] | also measured
1 | anti-gD antibody | – | – | APC-A+ (share of cells in the positive gate; percentage by paragraph 258) [1]: 63; APC-A+ (share of cells in the positive gate; percentage by paragraph 258) [2]: 35; APC-A+ (share of cells in the positive gate; percentage by paragraph 258) [3]: 0.79
2 | B1 | 1.6 nM | – | –
3 | B2 | – | no binding | –
4 | B3 | – | – | Kd [5]: 34.2 nM
5 | B4 | – | no binding | –
6 | B5 | 0.2 nM | – | –
